# B1: hybrid Bax/TCTP peptide (TCTP BH3 peptide containing the Bax h1 (P1) sub-region) (peptide)
# chain: QPPQDASTKKLSECIREIADGLCLEV
# Target: T1, Bcl-xL, recombinant protein (human, UniProt Q07817-1 1-233)
# T1 construct: Bcl-xL, human; also called wild type Bcl-xL; source: purified recombinant protein; host and details in Supplementary Information
# Test: ITC; peptide titrated into Bcl-xL in the cell; 30 °C, 50 mM ammonium bicarbonate pH 9; ITC200 calorimeter
# Conditions: both partners purified
# T1 sequence (Q07817 whole entry): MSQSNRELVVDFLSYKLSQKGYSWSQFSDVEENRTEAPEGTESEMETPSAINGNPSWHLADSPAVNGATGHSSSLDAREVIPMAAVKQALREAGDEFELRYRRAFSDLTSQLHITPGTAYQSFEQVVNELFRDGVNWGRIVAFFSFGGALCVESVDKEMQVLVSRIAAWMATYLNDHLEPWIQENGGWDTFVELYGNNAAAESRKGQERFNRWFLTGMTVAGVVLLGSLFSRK
binder,measurement,value
B1,Kd,0.5 µM

# — article PMC4728560, “TCTP contains a BH3-like domain, which instead of inhibiting, activates Bcl-xL” (Scientific Reports, 2016)
